Key:
[1] = molecular target: T1, LysG(Mt) (Mycobacterium tuberculosis) (UniProt P9WMF5); assay: EMSA
T1 sequence: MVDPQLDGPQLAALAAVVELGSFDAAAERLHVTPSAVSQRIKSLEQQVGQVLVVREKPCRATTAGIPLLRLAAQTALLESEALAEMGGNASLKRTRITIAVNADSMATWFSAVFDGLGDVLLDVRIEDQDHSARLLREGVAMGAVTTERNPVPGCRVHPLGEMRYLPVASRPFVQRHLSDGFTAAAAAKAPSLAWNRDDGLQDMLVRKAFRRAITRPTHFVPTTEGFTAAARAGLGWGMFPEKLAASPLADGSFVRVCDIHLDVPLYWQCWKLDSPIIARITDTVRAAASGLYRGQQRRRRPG

[2] = molecular target: T2, LysG(Mt) (Mycobacterium tuberculosis, UniProt P9WMF5 1-303); assay: EMSA; 200 pmole LysG, 10 fmole DNA; settings: protein: recombinant, tags: His6 (pQE30-LysG(Mt)x6His), chain copies: 4, blunt
T2 sequence: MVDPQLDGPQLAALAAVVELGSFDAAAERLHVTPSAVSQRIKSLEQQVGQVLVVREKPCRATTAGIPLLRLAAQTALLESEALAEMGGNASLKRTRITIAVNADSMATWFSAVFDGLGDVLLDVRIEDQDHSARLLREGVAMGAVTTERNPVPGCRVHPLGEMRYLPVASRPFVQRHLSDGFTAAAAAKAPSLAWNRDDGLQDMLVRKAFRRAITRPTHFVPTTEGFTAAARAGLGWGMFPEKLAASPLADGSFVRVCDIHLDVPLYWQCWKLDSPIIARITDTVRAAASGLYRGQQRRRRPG

TTCAGACCGGCACGTTTCAGAGCGGTGGGGATGTCCCGACGTGCGATCCGACAGGGGTTCGCAGGGTCCGCAAAAAACATAGTGAACGCCAGAAAGCCGAATGGGAGTACAAGGCGATGCCGGT (double strand) [oligonucleotide V (fadD26 upstream)]
binding [1]: no binding

CGCTGCGGTCATTGTGTTCCTCTTAGTCGTTCCGAAAGTTGTTCCAACAACTCGGCTTCGGTCAGTTCGTGGTAGGAGTCGGTGGCTTGCTGGGTTGCGACTGCGGTTGCCCCAATTTCGAGGAGCTCAGGC (double strand) [oligonucleotide VII (ppsC upstream)]
binding [1]: no binding

B1: oligonucleotide II (dsDNA)
DNA 1: CTCAGGTGTAGACCATCTGCGGAGCGTCGCACTGCACATTAATAATGCTAATGT
DNA 2: ACATTAGCATTATTAATGTGCAGTGCGACGCTCCGCAGATGGTCTACACCTGAG
binding result ([2]; label: 5'-biotin on reverse strand (834)): no binding

B2: oligonucleotide IV (dsDNA)
DNA 1: CGCACTGCACATTAATAATGCTAATGTAAATGAAGAATTATTAGCTATACTGAC
DNA 2: GTCAGTATAGCTAATAATTCTTCATTTACATTAGCATTATTAATGTGCAGTGCG
binding result ([2]; label: 5'-biotin on reverse strand (838)): binds

B3: oligonucleotide III (dsDNA)
DNA 1: AAATGAAGAATTATTAGCTATACTGACCCATACAAACTGCCTAGTGTCGATTGC
DNA 2: GCAATCGACACTAGGCAGTTTGTATGGGTCAGTATAGCTAATAATTCTTCATTT
binding result ([2]; label: 5'-biotin on reverse strand (836)): no binding

— article PMC5648196, “The transcriptional regulator LysG (Rv1985c) of Mycobacterium tuberculosis activates lysE (Rv1986) in a lysine-dependent manner”
